Target: T1, PAG (protein associated with glycosphingolipid-enriched microdomains) (UniProt Q9NWQ8 1-432)
T1 construct: Endogenous protein of human tumor cell lines, probed by immunoblot in the CD55 immunoprecipitate
T1 sequence (looked up): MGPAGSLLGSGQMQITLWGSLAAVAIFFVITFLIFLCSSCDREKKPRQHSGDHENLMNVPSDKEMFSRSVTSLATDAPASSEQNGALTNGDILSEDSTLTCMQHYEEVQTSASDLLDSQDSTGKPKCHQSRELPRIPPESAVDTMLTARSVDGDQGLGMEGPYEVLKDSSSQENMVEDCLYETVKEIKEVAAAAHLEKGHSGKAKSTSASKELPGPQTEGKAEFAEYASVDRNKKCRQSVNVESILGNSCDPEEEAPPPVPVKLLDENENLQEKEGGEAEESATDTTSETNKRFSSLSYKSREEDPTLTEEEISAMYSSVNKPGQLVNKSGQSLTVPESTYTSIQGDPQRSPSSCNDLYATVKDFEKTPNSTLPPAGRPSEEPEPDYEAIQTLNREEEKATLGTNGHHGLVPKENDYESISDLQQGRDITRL
Test: co-immunoprecipitation with anti-CD55 antibody from endometrioid CSC lysates, immunoblot for PAG
Method: Membranes were incubated overnight at 4° C. with primary antibodies against CD55 (1:1000) (Santa Cruz, Calif.), CD59 (1:1000) (Abcam), CD46 (1:1000) (Santa Cruz, Calif.), NANOG (1:500) (Cell Signaling), SOX2 (1:500) (Cell Signaling), OCT4 (1:500) (Cell Signaling), ROR2 (1:1000) (BD Biosciences), pJNK1 (1:1000) (T183/Y185) (Cell Signaling), JNK1 (1:1000) (Cell Signaling), p-c-Jun (1:1000) (S73) (Cell Signaling), p-c-Jun (1:1000) (S63) (Cell Signaling), c-Jun (1:1000) (Cell Signaling), pLCK (Y394) (1:1000) (BD Biosciences), LCK (1:1000) (Santa Cruz, Calif.), LIME (1:1000) (Invitrogen), PAG (1:1000) (Genetex), and (3-actin (1:1000) (Cell Signaling). Secondary anti-mouse or anti-rabbit IgG antibodies conjugated to horse radish peroxidase (HRP) (1:2000) (Thermo, Rockford, IL) were used and immunoreactive bands were visualized using the ECL plus from Pierce (Rockford, Ill., USA).
The lysates were spun at 12,000xg for 15 min at 4° C. Supernatants were incubated with rabbit anti-human CD55 primary antibody (SantaCruz, Calif.) and the corresponding antibody control for 1 hour at 4° C. Protein A/G agarose beads (Santa Cruz, Dallas, Tex.) were added to lysates which were subsequently incubated on a rotating mixer overnight at 4° C. The beads were then washed 3-4 times at 4° C., and Laemmli sample buffer was added to the beads and boiled for 5 minutes. […]

binding result: no binding
B1: CD55 (decay accelerating factor) (other, human, UniProt P08174 35-353, looked up)
chain: DCGLPPDVPNAQPALEGRTSFPEDTVITYKCEESFVKIPGEKDSVICLKGSQWSDIEEFCNRSCEVPTRLNSASLKQPYITQNYFPVGTVVEYECRPGYRREPSLSPKLTCLQNLKWSTAVEFCKKKSCPNPGEIRNGQIDVPGGILFGATISFSCNTGYKLFGSTSSFCLISGSSVQWSDPLPECREIYCPAPPQIDNGIIQGERDHYGYRQSVTYACNKGFTMIGEHSIYCTVNNDEGEWSGPPPECRGKSLTSKVPPTVQKPTTVNVPTTEVSPTSQKTTTKTTTPNAQATRSTPVSRTTKHFHETTPNKGSGTTS
modifications: GPI anchor (glycophosphatidylinositol-anchored to lipid rafts)
notes: Endogenous protein pulled down from 0.5% Triton X-100 cell lysates
